Data on one molecule can be found in patent publication CN101448941A.

Assay [1] has as its target 人血小板生成素受体 (人c-Mpl) (human) (UniProt P40238). Nature of the assay: flow cytometry on FM3A-hMpl cells.
Assay [2] shares this target. Nature of the assay: cell-based or functional assay.

B1: 7-10G4344uhm轻链突变抗体 7-10VL_Y94F (antibody, part only; not given: heavy chain, not shown: a dimerising Fc or GST)
light: AIQLTQSPSSLSASVGDRVTITCRASQGISSALAWYQQKPGKAPKLLIYDASSLESGVPSRFSGSGSGTDFTLTISSLQPEDFATYYCQQFNSFPLTFGGGTKVEIK
B1 returned a 结合活性 relative to the original 7-10G4344uhm (of the original level) in assay [1] of 0.1. This molecule came in with a 激动活性 (UT-7/TPO细胞增殖试验), relative to 7-10G4344uhm (of the original level) in assay [2] of 0.1.
